Test results published in patent CN113735969A (INST MILITARY MEDICINE ACADEMY MILITARY SCIENCES PLA, dated 2021).

Key:
SARS-CoV-2 WT RBD蛋白 = SARS-CoV-2 WT RBD蛋白 (SARS-CoV-2, UniProt P0DTC2 319-541)
SARS-CoV-2野生型病毒的S蛋白 = SARS-CoV-2野生型病毒的S蛋白 (SARS-CoV-2, UniProt P0DTC2 14-1273); assay: cell-based or functional assay

B1: 全人源抗SARS-CoV-2单克隆抗体ZWD12 (antibody, V domains shown)
VH: EVQLVESGGGLVQPGGTLRLSCVASGFSFSNYWMSWVRQAPGKGLEWVANIKQDGSETHYVDSVKGRFTISRDNAKNSLYLQMNSLRADDTAVYFCVKDRTDWELIRGYFGHWGQGTQITVSS
VL: DIVMTQTPSSLSLSPGDRATLSCRASENIINYLAWYQQRPGQSPRLLIYDASNRATGIPARFSGSGSGTDFTLTISSLEPEDFAVYYCQQRIIWPPYTFGQGTKVDIKR
In the case of B1, the Kd (SARS-CoV-2 WT RBD蛋白) is reported as 356 pM, the koff (SARS-CoV-2 WT RBD蛋白) is reported as 0.000167 s⁻¹ and the kon (SARS-CoV-2 WT RBD蛋白) is reported as 468000 M⁻¹ s⁻¹. The “假病毒中和 EC50 (luciferase, HEK293T cells)” value (SARS-CoV-2野生型病毒的S蛋白) was 0.00586 µg/mL and the “真病毒中和 EC50 (Vero E6 cells, crystal violet)” value (SARS-CoV-2野生型病毒的S蛋白) was 0.103 µg/mL.
